Patent US20200262867A1 (WNTRX PHARMACEUTICALS, published 2020)
Bridges are numbered along the chain shown (N, C = ends). Primed or numbered codes have the meaning given here. Where no end group is shown, it is not given here. [ ]: non-standard residue; d: D form. The star is where a group is joined. S5′ = (S)-2-(4'-pentenyl)alanine, olefinic stapling residue closed by ring-closing metathesis; NMeQ′ = N-methylglutamine (N-alpha-methyl, stereo named both D and L in the filing); Phe(3,4-Cl2) = N[C@@H](Cc1ccc(Cl)c(Cl)c1)C(=O)O; PEG4″ = PEG4 (tetraethylene glycol) spacer; Phe(4-Cl) = N[C@@H](Cc1ccc(Cl)cc1)C(=O)O; Phe(4-F) = N[C@@H](Cc1ccc(F)cc1)C(=O)O; 2Nal = N[C@@H](Cc1ccc2ccccc2c1)C(=O)O; NMeCha = CN[C@@H](CC1CCCCC1)C(=O)O; Palmitoyl = CCCCCCCCCCCCCCCC(=O)*; hArg = N=C(N)NCCCC[C@H](N)C(=O)O; NMeQ = CN[C@@H](CCC(N)=O)C(=O)O; Cha = N[C@@H](CC1CCCCC1)C(=O)O; Cba = N[C@@H](CC1CCC1)C(=O)O; Tle = CC(C)(C)[C@H](N)C(=O)O; S5 = C=CCCC[C@](C)(N)C(=O)O; NMeC = CN[C@@H](CS)C(=O)O

T1: β-catenin (UniProt P35222 1-781, limits assumed)
T1 construct: also called beta-catenin
T1 sequence (looked up): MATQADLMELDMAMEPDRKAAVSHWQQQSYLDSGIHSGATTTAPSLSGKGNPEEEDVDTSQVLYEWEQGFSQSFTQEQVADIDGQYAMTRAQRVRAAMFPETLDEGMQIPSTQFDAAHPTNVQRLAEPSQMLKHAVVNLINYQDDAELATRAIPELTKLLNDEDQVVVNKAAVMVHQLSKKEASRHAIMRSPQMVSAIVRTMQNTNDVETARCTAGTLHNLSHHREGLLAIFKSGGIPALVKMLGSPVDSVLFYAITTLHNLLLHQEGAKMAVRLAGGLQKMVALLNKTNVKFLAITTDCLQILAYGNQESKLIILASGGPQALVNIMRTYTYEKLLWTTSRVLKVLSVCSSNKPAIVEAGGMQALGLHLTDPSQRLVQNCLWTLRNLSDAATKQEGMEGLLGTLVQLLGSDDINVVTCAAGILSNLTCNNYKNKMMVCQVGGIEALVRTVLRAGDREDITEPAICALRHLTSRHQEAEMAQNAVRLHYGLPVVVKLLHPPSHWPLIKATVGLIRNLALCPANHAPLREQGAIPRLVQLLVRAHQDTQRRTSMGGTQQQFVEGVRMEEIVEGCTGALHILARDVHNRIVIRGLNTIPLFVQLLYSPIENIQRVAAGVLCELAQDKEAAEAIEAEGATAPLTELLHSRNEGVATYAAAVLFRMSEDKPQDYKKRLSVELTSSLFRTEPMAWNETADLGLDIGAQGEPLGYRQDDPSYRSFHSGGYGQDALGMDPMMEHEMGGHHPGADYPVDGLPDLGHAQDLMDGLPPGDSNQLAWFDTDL

B1: SEQ ID NO: 21 (peptide)
peptide: Ac-AQTAR[S5]IQR[S5]L[2Nal]-NH2
modifications: staple 6-10
SMILES: CC[C@H](C)[C@@H]1NC(=O)[C@@](C)(NC(=O)[C@H](CCCNC(=N)N)NC(=O)[C@H](C)NC(=O)[C@@H](NC(=O)[C@H](CCC(N)=O)NC(=O)[C@H](C)NC(C)=O)[C@@H](C)O)CCCC=CCCC[C@@](C)(C(=O)N[C@@H](CC(C)C)C(=O)N[C@@H](Cc2ccc3ccccc3c2)C(N)=O)NC(=O)[C@H](CCCNC(=N)N)NC(=O)[C@H](CCC(N)=O)NC1=O
B2: SEQ ID NO: 141 (peptide)
peptide: {4‑(trifluoromethyl)benzoic acid}-L[NMeQ]TLR[S5]IQR[S5][Cba][2Nal]-NH2
modifications: staple 6-10; not fully specified
notes: the footnote mark in T0158 is printed 19, seemingly for 10
B3: SEQ ID NO: 217 (peptide)
peptide: Ac-[NMeC]RQRSLQTLR[S5]IQR[S5][Cha][2Nal]-NH2
modifications: staple 11-15
SMILES: CC[C@H](C)[C@@H]1NC(=O)[C@@](C)(NC(=O)[C@H](CCCNC(=N)N)NC(=O)[C@H](CC(C)C)NC(=O)[C@@H](NC(=O)[C@H](CCC(N)=O)NC(=O)[C@H](CC(C)C)NC(=O)[C@H](CO)NC(=O)[C@H](CCCNC(=N)N)NC(=O)[C@H](CCC(N)=O)NC(=O)[C@H](CCCNC(=N)N)NC(=O)[C@H](CS)N(C)C(C)=O)[C@@H](C)O)CCCC=CCCC[C@@](C)(C(=O)N[C@@H](CC2CCCCC2)C(=O)N[C@@H](Cc2ccc3ccccc3c2)C(N)=O)NC(=O)[C@H](CCCNC(=N)N)NC(=O)[C@H](CCC(N)=O)NC1=O
B4: SEQ ID NO: 202 (peptide)
peptide: Ac-HR[NMeQ′]RSL[NMeQ′]TLR[S5]IQR[S5][Phe(4-F)][2Nal]-NH2
modifications: staple 11-15; not fully specified; printed as HR(N-methylQ)RSL(N-methylQ)TLRXIQRX(4-F-Ph)(2-Nal), X/X stapled, (S) α-methyl, N-terminal Ac, C-terminal NH2
B5: SEQ ID NO: 196 (peptide)
peptide: Ac-HRQRSLQTLR[S5]IQR[S5][Phe(4-Cl)][2Nal]-NH2
modifications: staple 11-15
SMILES: CC[C@H](C)[C@@H]1NC(=O)[C@@](C)(NC(=O)[C@H](CCCNC(=N)N)NC(=O)[C@H](CC(C)C)NC(=O)[C@@H](NC(=O)[C@H](CCC(N)=O)NC(=O)[C@H](CC(C)C)NC(=O)[C@H](CO)NC(=O)[C@H](CCCNC(=N)N)NC(=O)[C@H](CCC(N)=O)NC(=O)[C@H](CCCNC(=N)N)NC(=O)[C@H](Cc2c[nH]cn2)NC(C)=O)[C@@H](C)O)CCCC=CCCC[C@@](C)(C(=O)N[C@@H](Cc2ccc(Cl)cc2)C(=O)N[C@@H](Cc2ccc3ccccc3c2)C(N)=O)NC(=O)[C@H](CCCNC(=N)N)NC(=O)[C@H](CCC(N)=O)NC1=O
B6: SEQ ID NO: 216 (peptide)
peptide: Ac-CRQRSLQTLR[S5]IQR[S5][Cha][2Nal]-NH2
modifications: staple 11-15
SMILES: CC[C@H](C)[C@@H]1NC(=O)[C@@](C)(NC(=O)[C@H](CCCNC(=N)N)NC(=O)[C@H](CC(C)C)NC(=O)[C@@H](NC(=O)[C@H](CCC(N)=O)NC(=O)[C@H](CC(C)C)NC(=O)[C@H](CO)NC(=O)[C@H](CCCNC(=N)N)NC(=O)[C@H](CCC(N)=O)NC(=O)[C@H](CCCNC(=N)N)NC(=O)[C@H](CS)NC(C)=O)[C@@H](C)O)CCCC=CCCC[C@@](C)(C(=O)N[C@@H](CC2CCCCC2)C(=O)N[C@@H](Cc2ccc3ccccc3c2)C(N)=O)NC(=O)[C@H](CCCNC(=N)N)NC(=O)[C@H](CCC(N)=O)NC1=O
B7: SEQ ID NO: 200 (peptide)
peptide: Ac-HRQRS[Cha][NMeQ′]TLR[S5]IQR[S5][Phe(4-F)][2Nal]-NH2
modifications: staple 11-15; not fully specified; printed as HRQRS(Cha)(N-methylQ)TLRXaa3IQRXaa6(4-F-Ph)(2-Nal)
B8: SEQ ID NO: 203 (peptide)
peptide: Ac-HR[NMeQ′]RSL[NMeQ′]TLR[S5]IQR[S5][Phe(3,4-Cl2)][2Nal]-NH2
modifications: staple 11-15; not fully specified; printed as HR(N-methylQ)RSL(N-methylQ)TLRXIQRX(3,4-diCl-Ph)(2-Nal), X/X stapled, (S) α-methyl, N-terminal Ac, C-terminal NH2
B9: SEQ ID NO: 211 (peptide)
peptide: {Palmitoyl-PEG4″}-HRQRS[Cha][NMeQ′]TLR[S5]IQR[S5][Cha][2Nal]-NH2
modifications: staple 11-15; not fully specified; printed as HRQRS(Cha)(N-methylQ)TLRXaa3IQRXaa6(Cha)(2-Nal)
B10: SEQ ID NO: 192 (peptide)
peptide: Ac-HRQRSLQTLR[S5]IQR[S5][Tle][2Nal]-NH2
modifications: staple 11-15
SMILES: CC[C@H](C)[C@@H]1NC(=O)[C@@](C)(NC(=O)[C@H](CCCNC(=N)N)NC(=O)[C@H](CC(C)C)NC(=O)[C@@H](NC(=O)[C@H](CCC(N)=O)NC(=O)[C@H](CC(C)C)NC(=O)[C@H](CO)NC(=O)[C@H](CCCNC(=N)N)NC(=O)[C@H](CCC(N)=O)NC(=O)[C@H](CCCNC(=N)N)NC(=O)[C@H](Cc2c[nH]cn2)NC(C)=O)[C@@H](C)O)CCCC=CCCC[C@@](C)(C(=O)N[C@H](C(=O)N[C@@H](Cc2ccc3ccccc3c2)C(N)=O)C(C)(C)C)NC(=O)[C@H](CCCNC(=N)N)NC(=O)[C@H](CCC(N)=O)NC1=O

Each binder was assayed against T1, β-catenin (assay: ALPHA Screen (BCL9/β-catenin);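 further: bead proximity readout with the polypeptide linked to donor beads and β-catenin fixed on acceptor beads, their binding bringing the beads close enough to emit signal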).
Excerpt: In this assay, a polypeptide is conjugated to a donor bead and its target protein (i.e., β-catenin) is attached to an acceptor bead. When the two beads are in proximity due to the binding of the polypeptide to the target protein, a signal is generated and the binding affinity of the polypeptide can be quantitatively calculated. The assay may be conducted in the presence or absence of an unconjugated control polypeptide.
Binder Ac-LQTLR[S5]IQR[S5]A[2Nal]-NH2 (staple 6-10) [SEQ ID NO: 77] has an IC50 of 7680 nM. With Ac-LQTLR[S5′]IQE[S5′]L[2Nal]-NH2 (staple 6-10) [SEQ ID NO: 99] the IC50 was 50000 nM. For Ac-LQTLR[S5]AQR[S5]A[2Nal]-NH2 (staple 6-10; not fully specified; printed as LQTLRXAQRXA(2-Nal)) [SEQ ID NO: 23], the IC50 was 30000 nM. Ac-LQTLR[S5]IQK[S5]L[2Nal]-NH2 (staple 6-10) [SEQ ID NO: 101] gave an IC50 of 10600 nM. Ac-[dL]QTIR[S5]IQR[S5]L[2Nal]-NH2 (staple 6-10) [SEQ ID NO: 102] showed an IC50 of 6840 nM. For Ac-LQTAR[S5]IQR[S5]L[2Nal]-NH2 (staple 6-10) [SEQ ID NO: 75], the IC50 was 6290 nM. Work on B1 yielded an IC50 of 7610 nM. Binder Ac-LQTLR[S5]AQR[S5]L[2Nal]-NH2 (staple 6-10) [SEQ ID NO: 76] has an IC50 of 8990 nM. Work on Ac-LQTAR[S5]AQR[S5]L[2Nal]-NH2 (staple 6-10; not fully specified; printed as LQTARXAQRXL(2-Nal)) [SEQ ID NO: 22] yielded an IC50 of 11400 nM. In the case of Ac-LQTLK[S5]IQR[S5]L[2Nal]-NH2 (staple 6-10) [SEQ ID NO: 100], the IC50 is reported as 14400 nM. For Ac-LQTLE[S5′]IQR[S5′]L[2Nal]-NH2 (staple 6-10) [SEQ ID NO: 98], the IC50 was 47100 nM. Ac-LQT[dL]R[S5]IQR[S5]L[2Nal]-NH2 (staple 6-10) [SEQ ID NO: 103] gave an IC50 of 2860 nM. In the case of LQTLRDIQRML[2Nal]PD [SEQ ID NO: 53], the IC50 is reported as 27900 nM. Work on Ac-HRQRSLQTLR[S5]IQ[hArg][S5][Cba][2Nal]-NH2 (staple 11-15) [SEQ ID NO: 171] yielded an IC50 of 340 nM. In the case of {5‑phenylvaleric acid}-L[NMeQ]TLR[S5]IQR[S5][Cba][2Nal]-NH2 (staple 6-10; not fully specified) [SEQ ID NO: 142], the IC50 is reported as 6070 nM. For B2, the IC50 was 2250 nM. Work on Ac-HRQRSLQTL[hArg][S5]IQR[S5][Cba][2Nal]-NH2 (staple 11-15) [SEQ ID NO: 170] yielded an IC50 of 430 nM. Binder Ac-HRQRS[NMeCha][NMeQ]TLR[S5]IQR[S5][Cha][2Nal]-NH2 (staple 11-15; also: N-MeGln at 7: D or L (both stated)) [SEQ ID NO: 186] has an IC50 of 232 nM. For Ac-HR[NMeQ]RSLQTLR[S5]IQR[S5][Tle][2Nal]-NH2 (staple 11-15; also: N-methylglutamine 3: D or L (filing names both)) [SEQ ID NO: 194], the IC50 was 398 nM. With B3 the IC50 was 384 nM. In the case of B4, the IC50 is reported as 294 nM. Work on B5 yielded an IC50 of 63 nM. With B6 the IC50 was 155 nM. With B7 the IC50 was 324 nM. B8 gave an IC50 of 312 nM. B9 gave an IC50 of 305 nM. With B10 the IC50 was 329 nM.
